# Test results published in paper PMC5774762.
# Columns and labels:
# biotinylated SUMO1 = biotinylated SUMO1 (UniProt P63165); assay: BLI; biotinylated SUMO1 on streptavidin sensors (Octet QK); UTAG as analyte 4-250 nM; 25°C; HBS-T (10 mM HEPES pH 7.4, 150 mM NaCl, 0.05% Tween 20); association 300 s, dissociation 300 s; global single-state fit
# [1] = target: SUMO1 conjugated to agarose beads (UniProt P63165); assay: pull-down; SUMO1 beads, with TCEP, at 42°C; bound UTAG quantitated from the stained gel against room temperature
# [2] = target: SUMO1 conjugated to agarose beads (UniProt P63165); assay: pull-down; SUMO1 beads, 45 min in the presence of hydrogen peroxide (concentration not told); percent of total protein bound
# [3] = target: SUMO1 conjugated to agarose beads (UniProt P63165); assay: pull-down; SUMO1 beads with 2.0 M urea, 5 mM TCEP; quantitated against the reaction without urea
# [4] = target: SUMO1 conjugated to agarose beads (UniProt P63165); assay: pull-down; SUMO1 beads, binding of KmUTAG over time (min); percent of total protein bound
# SUMO1 (Homo sapiens) = SUMO1 (Homo sapiens) (UniProt P63165); details: cited from earlier work
# [5] = target: SUMO1 conjugated to agarose beads (UniProt P63165); assay: pull-down; SUMO1-conjugated agarose beads in buffer with hydrogen peroxide (0.6% in the text, 1% in the legend) instead of TCEP; quantitated from the stained gel
# [6] = target: SUMO1 conjugated to agarose beads (UniProt P63165); assay: pull-down; SUMO1 beads with various concentrations of hydrogen peroxide (0.006% named in the text); quantitated from the stained gel
substance,measurement,setting,value
"KmUTAG, catalytically inactive (C517S) UD domain of Kluyveromyces marxianus Ulp1, MBP/His6 fusion (from UniProt A0ABX6EQA7 1-555) (domain or fragment)",KD after elimination of the top two analyte traces,biotinylated SUMO1,8.7 nM
same,Kd,biotinylated SUMO1,8.7 nM
same,koff,biotinylated SUMO1,0.00084 s⁻¹
same,kon,biotinylated SUMO1,96000 M⁻¹ s⁻¹
same,percent reduction of binding at 42°C against room temperature,[1],25%
same,percent of the protein bound after 45 minutes in the presence of peroxide,[2],60%
same,percent reduction of binding in 2M urea,[3],23%
same,percent of the protein bound after 45 minutes,[4],70%
same,percent of the protein bound within 15 minutes,[4],50%
ScUTAG (from UniProt Q02724),Kd,SUMO1 (Homo sapiens),12.8 nM
"ScUTAG, catalytically inactive (C580S) UD domain of Saccharomyces cerevisiae Ulp1, MBP/His6 fusion (from UniProt Q02724 1-621) (domain or fragment)",Kd,biotinylated SUMO1,2 nM
same,koff,biotinylated SUMO1,4.2e-05 s⁻¹
same,kon,biotinylated SUMO1,21000 M⁻¹ s⁻¹
same,percent of binding left in the presence of 0.6% H2O2,[5],17%
same,percent reduction of binding at 42°C against room temperature,[1],87%
same,percent reduction of binding with 0.006% peroxide,[6],50%
same,percent reduction of binding in 2M urea,[3],82%
